We go through 2 proteins from doi:10.1101/2020.08.19.257774 (bioRxiv, 2020).

The series “negative stain EM” concerns the molecule itself. The series can be described thus: negative stain EM.
The series “cryo-EM structure” concerns the molecule itself. The series can be described thus: cryo-EM structure.

B1: Synechocystis LPOR (enzyme, UniProt Q59987 1-322, looked up)
chain: MEQPMKPTVIITGASSGVGLYGAKALIDKGWHVIMACRNLDKTQKVADELGFPKDSYTIIKLDLGYLDSVRRFVAQFRELGRPLKALVCNAAVYFPLLDEPLWSADDYELSVATNHLGHFLLCNLLLEDLKACPDADKRLIILGTVTANSKELGGKIPIPAPPDLGNFEGFEAGFKKPIAMINNKKFKSGKAYKDSKLCNMLTTRELHRRFHQETGIVFNSLYPGCVADTPLFRNHYSLFRTIFPWFQKNVTKGYVSQELAGERVAMVVADDKFKDSGVHWSWGNRQQAGREAFVQELSEQGSDAQKAQRMWDLSEKLVGLV
In the case of B1, the binding result in “negative stain EM” is reported as “binds”.

B2: A. thaliana Light-dependent Protochlorophyllide OxidoReductase isoform B (AtPORB) (enzyme)
chain: QTAATSSPTVTKSVDGKKTLRKGNVVVTGASSGLGLATAKALAETGKWNVIMACRDFLKAERAAKSVGMPKDSYTVMHLDLASLDSVRQFVDNFRRTETPLDVLVCNAAVYFPTAKEPTYSAEGFELSVATNHLGHFLLARLLLDDLKKSDYPSKRLIIVGSITGNTNTLAGNVPPKANLGDLRGLAGGLNGLNSSAMIDGGDFDGAKAYKDSKVCNMLTMQEFHRRFHEETGVTFASLYPGCIASTGLFREHIPLFRALFPPFQKYITKGYVSETESGKRLAQVVSDPSLTKSGVYWSWNNASASFENQLSEEASDVEKARKVWEISEKLVGLA
Turning to B2, the binding result in “cryo-EM structure” is “binds”.
